Measurements taken from patent US20070025968A1, “Methods for selecting and producing T cell peptide epitopes and vaccines incorporating said selected epitopes” (priority 1996, published 2007).

Target: other cell components, including other HLA class I alleles, of the B-LCL lines

Substance: FL-labeled HLA-A*0301 reference peptide KVFPC(FL)ALINK
- relative peptide-binding percentage: < 20%
